Assay: yeast display, Sf9 membrane polyspecificity reagent, FACS + sequencing; frameworks hold sequencing errors
Procedure, shortened: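 In a synthetic yeast display library (Saccharomyces cerevisiae BJ5465), nanobody expression was induced with galactose for 36–48 hours. FACS gates were set low and high (top ~1%) using anti-HA fluorescence for expression and streptavidin fluorescence for binding of the Sf9 membrane reagent. Each polyreactivity label is drawn from the gate of origin.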

Row | Sequence | polyreactivity (PSR sort gate)
1 | QVQLVESGGGLVQAGGSLRLSCAASGIIFPYYAMGWYRQAPGKERELVAAISSRDGRTYYADSVKGRFTISRDNAKNTVYLQMNSLKPEDTAVYYCAARAVGGVRGYRYDYWGQGTQVTVSS | high polyreactivity
2 | QVQLVESGGGLVQAGGSLRLSCAASGIIFPYYTMGWYRQAPGKERELVARITNGGRTYYADSVKGRFTISRDNAKNTVYLQMNSLKPEDTGVYYCAADSRYDYEYWGQGTQVTVSS | high polyreactivity
3 | QVQLVESGGGLVQAGGSLRLSCAASGIIFQLYAMGWYRQAPGKERELVASITLSGTTTYYADSVKGRVTISRDNAKNTVYLQMNSLKPEDTAVYYCAKEYYYWGQGTQVTVSS | low polyreactivity
4 | QVQLVESGGGLVQAGGSLRLSCAASGIIFQRNDMGRYRQAPGKERELVANIRDGGITYADSVKGRFTISRDNAKNTVYLQMNSLKPEDTAVYYCARDDTSPGYGDQSSNAAYYYWGQGTQVTVSS | low polyreactivity
5 | QVQLVESGGGLVQAGGSLRLSCAASGIIFQRNDMGWYRQAPGKERELVANIRDGGITYADSVKGRFTISRDNAKNTVYLQMNSLKPEDTAVYYCARDDTSPGYGDQSFNAAYYYWGQGTQVTVSS | low polyreactivity
6 | QVQLVESGGGLVQAGGSLRLSCAASGIIFQSYTMGWYRPATGKERELVAAIDSGGSTYYADSVKGRFTISRDNAKNTVYLQMNSLKREDTAVYYCAAEPDTYWYTFYYWGQGTQVTVSS | low polyreactivity
7 | QVQLVESGGGLVQAGGSLRLSCAASGIIFQWYAMGWYSQAPGKERELVAAINSDGSTYYADSVKGRFTISRDNAKNTVYLQMNSLIPEDTAVYYCAADFIPLIGFDYWGQGTQVTVSS | low polyreactivity
8 | QVQLVESGGGLVQAGGSLRLSCAASGIIFQYYAMGWYRPAPGKEREWVAAITSSGDRTYYADSVKGRFTISRDNAKNNVILQMNSLNPEDTAVYYCNAVYYLDYHYGYEFGYWGQGTQVTVSS | high polyreactivity
9 | QVQLVESGGGLVQAGGSLRLSCAASGIIFRDYGMGWSRQAPGKEREFVATITYSGGGTYYADSVKGRFTISRDKAKNTVYLQMNSLKPEDTAVYYCAAYPFYYDLAYDYWGQGTQVTVSS | low polyreactivity
10 | QVQLVESGGGLVQAGGSLRLSCAASGIIFRGNVMGWSRQAPGKERELVAAISGSGGRTYYADSVKGRFTISRDNAKNTVYLQMNSLKPEDTAVYYCNADKAIRYDYWGQGTQVTVSS | high polyreactivity
11 | QVQLVESGGGLVQAGGSLRLSCAASGIIFRHNAMGWYRQAPGKERELVAAISSGGNTYYADSVKGRFTISRDNAKNTVYLQMNSLKPEDTAVYYCAADVQDRYHRAWYDYWGQGTQVTVSS | low polyreactivity
12 | QVQLVESGGGLVQAGGSLRLSCAASGIIFRLNAMGWYRQAPGKERELVAAIRRRGGSTYYADSVKGRFTISRDIAKNTVYLQMNSLKPEDTAVYYCAKDPHGSDFGYWGQGTQVTVSS | low polyreactivity
13 | QVQLVESGGGLVQAGGSLRLSCAASGIIFRLNTMGWYRQAPGKERELVAAITSGGSTQYADSVKGRFTISRDNAKNTVYLQMNSLKPEDSAVYYCAAGHRANYWAWHFYYPGDFWGQGTQVTVSS | low polyreactivity
14 | QVQLVESGGGLVQAGGSLRLSCAASGIIFRNNAMGWYRQAPGKERELVAAISRRGGSTSYADSVKGRFTISRDNAKNTVYLQMNSLKPEDTAVYYCNKAGPYYGYPHYLFYYWGQGTQVTVSS | high polyreactivity
15 | QVQLVESGGGLVQAGGSLRLSCAASGIIFRRNAMGWYRQAPGKERELVAAIRWSGGSTYYADSVKGRFTISRDNAKNTVYLQMNSLKPEDTAVYYCAARYYRPRYEMDYWGQGTQVTVSS | low polyreactivity
16 | QVQLVESGGGLVQAGGSLRLSCAASGIIFRRYAMGWYRQAPGKERELVAAISSSGGNTYYADSVKGRFTISRDNAKNTVYLQMYSLKPEDTAVYYCAARSQIYYRYRSYGYWGQGTQVTVSS | high polyreactivity
17 | QVQLVESGGGLVQAGGSLRLSCAASGIIFRRYAMGWYRQAPGKERELVATITWSGGSTYYADSVKGRFTISRDNAKNTVYLQMNSLKPEDTAVYYCAKRGSRLYRLDYWGQGTQVTVSS | high polyreactivity
18 | QVQLVESGGGLVQAGGSLRLSCAASGIIFRTYAMGCYRQAPVKERELVAAITGSGGITYYADSVKGRFTISRDNAKNTVYLQMNSLKPEDTAVYYCAARGTRDGVQRYGYWGQGSQVTVSS | high polyreactivity
19 | QVQLVESGGGLVQAGGSLRLSCAASGIIFRTYDMGWYRQAPGKERELVANISWSAGSTYYADSVKGRFTISRDNAKNTVYLQMNSLKPEDTAVYFCNAVRLYPSSYDYWGQGTQVTVSS | low polyreactivity
20 | QVQLVESGGGLVQAGGSLRLSCAASGIIFRVNAMGWYRQAPGKERELVAAISSGGRTYYADSVKGRFTISRDNAKNTVYLQMNSLKPEDTAVYYCAAKPPSTYDYWGQGTQVTVSS | high polyreactivity
21 | QVQLVESGGGLVQAGGSLRLSCAASGIIFRVYTMGWYRQAPGKERELVAGISSGDSTSYADSVKGRFTISRDNAKNTVYLQMNSLKPEDTAVYYCNAVAYYSYSANFRNAYDYWGQGTQVTVSS | low polyreactivity
22 | QVQLVESGGGLVQAGGSLRLSCAASGIIFRWYVMGWYRQAPGKERELVAAISYRRGSTNYADSVKGRFTISRDNAKNTVYLQMNSLKPEDTAVYYCNRVPYPGSRRKYDYWGQGTQVTVSS | high polyreactivity

Row | Sequence | polyreactivity (PSR sort gate)
23 | QVQLVESGGGLVQAGGSLRLSCAASGIIFRYNAMGWYRQAPGKERELVAVINWRSGGTYYADSVKGRFTISRDNAKNTVYLQMNSLKPDDTADYYCADRVGSWTQSFGYDYWGQGTQVTVSS | high polyreactivity
24 | QVQLVESGGGLVQAGGSLRLSCAASGIIFRYNTMGWYRQAPGKERELVAAISGGGRTYYADSVKGRFTISRDNAKNTVYLQMNSLKPEDTAVYYCAARYRTSGLDNYWGQGTQVTVSS | high polyreactivity
25 | QVQLVESGGGLVQAGGSLRLSCAASGIIFRYYAMGWYRQAPGKERELVAAISSSGVSTYYADSVKGRFTISRDNAKNTVYLQMNSLKPEDTAVYYCNAVIWVRQYFSRSSSNYWGQGTQVTVSS | high polyreactivity
26 | QVQLVESGGGLVQAGGSLRLSCAASGIIFRYYAMGWYRQAPGKERELVAAITSRGGSTYYADSVKGRFTISRDNAKNTVYLQMNSLKPEDTAVYYCATAYYYFSTSRADGEYWGQGTQVTVSS | high polyreactivity
27 | QVQLVESGGGLVQAGGSLRLSCAASGIIFRYYAMGWYRQAPGKERELVAAITWSGGTYYADSVKGRFTISRDNAKKTVYLQMNSLKPEETAVYYCAAVYYGYRDRTDYGYWGQGTQVTVSS | high polyreactivity
28 | QVQLVESGGGLVQAGGSLRLSCAASGIIFRYYAMGWYRQAPGKERELVARITSRGGTYYADSVKGRFTISRDNAKNTVYLQMNSLKPEDTAVYDCAASYLLTHGYAYNYWGQGTQVTVSS | high polyreactivity
29 | QVQLVESGGGLVQAGGSLRLSCAASGIIFRYYAMGWYRQAPGKERELVAVITRSGGSTYADSVKGRFTISRDNAKNTVYLQMNSLKPEDTAVYYCAAQWYLGYATRWRGGYWGQGTQVTVSS | high polyreactivity
30 | QVQLVESGGGLVQAGGSLRLSCAASGIIFSDYAMGWYRQAPGKERELVAAISRNGGSTYYADSVKGRFTISRDNAKNTVYLHMTSLKPEDTAVYYCAATRRYRYNWGQGTQVSVSS | high polyreactivity
31 | QVQLVESGGGLVQAGGSLRLSCAASGIIFSDYGMGWDRQAPGKERELVAAINSGGRTYSADSVKGRFTISRDNAKNTVYLQMNSLKPEDTAVYYCAADTQGSRYDYWGQGTQVTVSS | high polyreactivity
32 | QVQLVESGGGLVQAGGSLRLSCAASGIIFSFYAMGWYRQAPGKERELVADITLSGGRTYYADSVKGRFTISRDNAKNTVYLQMNSLKPEDTAVYYCNDETYERGDYWGQGTKVTVSS | high polyreactivity
33 | QVQLVESGGGLVQAGGSLRLSCAASGIIFSFYTMGWYRQAPGKERELGAAITWSGGSTYYADSVKGRFTISRDNAKNTVYLQMNSLKPEDTAVYYCARSQAVYDGWFAKFGYWGQGTQVTVSS | low polyreactivity
34 | QVQLVESGGGLVQAGGSLRLSCAASGIIFSGYVMGWYGQAPGKERELVAAISRSGGRTFYADSVKGRFTISRDNAMNTVYLQMNSLKPEDTAVYYCAKVPSYVRGHGYQYDHWGQGTQVTVSS | high polyreactivity
35 | QVQLVESGGGLVQAGGSLRLSCAASGIIFSIYAMGWYRQAPGKERELVAAISGRGGRTYYADSVKGRFTISRDNAKNTVYLQMNSLKPVDTAVYYCIAEYLDLYDYWGQGTQVTVSS | low polyreactivity
36 | QVQLVESGGGLVQAGGSLRLSCAASGIIFSPYAMGWYRQAPGKERELVAAISYSGGSTYYADSVKGRFTITRDNAKNTVYLQMNSLKPEDTAVYYCAVVYSYYLAVLGYWDYDYWGQGTQVTVSS | low polyreactivity
37 | QVQLVESGGGLVQAGGSLRLSCAASGIIFSPYAMGWYRQAPGKERELVAAISYSGGSTYYADSVKGRYTISRDNAKNSVYLQMNSLKPEETAVYYCAVFYSYYLAFMGYWDYDYWGQGTQVTVSS | low polyreactivity
38 | QVQLVESGGGLVQAGGSLRLSCAASGIIFSSYAMGWYRQAPGKERELVAAITRGGSTNYADSVKGRFTISRDNAKNTVYLQMNSLKPEDTAVYYCNALWRAYRNYHYIVKNDYWGEGTQVTVSS | high polyreactivity
39 | QVQLVESGGGLVQAGGSLRLSCAASGIIFSSYAMGWYRQAPGKERELVAAITSGGSTNYADSVKGRFTISRDNAKNTVYLQMNSLKPEDTAVYYCATVHAKPYYYWGQGTQVTVSS | low polyreactivity
40 | QVQLVESGGGLVQAGGSLRLSCAASGIIFSVNAMGWYRQAPGKERELVAAISGSGGRTYYADSVKGRFTISRDNAKNTVYLQMNSLKPEDTAVYYCAARRTGKSYYGSRSGFDYWGQGTQVTVSS | high polyreactivity
41 | QVQLVESGGGLVQAGGSLRLSCAASGIIFSVYAMGWYRQAPGKERELVAAISWSGTSTYYADSVKGRFTISRDNAKNTVYLQMNSLKPEDTAVYYCNAKRYRYFGNEYWGQGTQVTVSS | high polyreactivity
42 | QVQLVESGGGLVQAGGSLRLSCAASGIIFSWYAMGWYRQAPGKERELVASITASGGSTYYADSVKGRFTISRDNAKNTVYLQMNSLKPEDTAVYYCAVRYGHRSFASVYVEYEYWGQGTQVTVSS | low polyreactivity
43 | QVQLVESGGGLVQAGGSLRLSCAASGIIFSYNVMGWSREARGKEREFVAAISRSVGSTYYADSVKGRFTISRDNAKNTVYLPMNSLKPEDTAVYYCNARGKRRGKIPYSSYASSYDSWGQGTQVTVSS | high polyreactivity

From the nanobody polyreactivity screen of Harvey et al. (2022)
